Laboratory results reported in doi:10.1101/2023.10.13.562012.
Values belong to the substance of their own block, whether it stands above or below them.

How the values were obtained:
Assay in all cases: cryo-EM structure
[1] = biological target: LHC-II complex (spinach (endogenous in leaves))
[2] = biological target: Rubisco (spinach (endogenous in leaves))
[3] = biological target: chloroplast carbonic anhydrase (CA) (spinach (endogenous in leaves))
[4] = biological target: tonoplast intrinsic protein TIP2;1 (spinach (endogenous in leaves))
[5] = biological target: tonoplast intrinsic protein TIP1;1 (spinach (endogenous in leaves))

stoichiometry N [1]: 3
Substance: LHC-II complex (natural protein)

stoichiometry N [2]: 8
Substance: Rubisco (complex)

stoichiometry N [3]: 8
Substance: chloroplast carbonic anhydrase (CA) (enzyme)

stoichiometry N [4]: 3
stoichiometry N [5]: 4
Substance: tonoplast intrinsic protein TIP1;1 (natural protein)
